{
  "source": "patent US20210063414A1",
  "about": "“METHODS FOR PREVENTING AND/OR TREATING BONE LOSS CONDITIONS BY MODULATING IRISIN” (Dana-Farber Cancer Institute, Inc., priority 2018, published 2021)",
  "key": {"[1]": {"system": "sclerostin mRNA in MLO-Y4 cells", "assay": "Sclerostin mRNA in MLO-Y4 cells, qRT-PCR", "format": "cell-based, mouse", "conditions": "MLO-Y4, irisin 16 hours", "experimental": "Cells were stained with Hoechst 33342 and Eth-D1, and analyzed to determine the percentage of cell death. *: p<0.05, ***: p<0.001 vs 0.3 mM H2O2 treated condition. […] MLO-Y4 cells were seeded and incubated until 60% cell density. The cells were incubated with Freestyle293 medium for 4 hours and were treated with indicated concentrations of irisin for 16 hours. Sclerostin mRNA level was analyzed by qRT-PCR. Cyclophilin was used as a control house-keeping gene.\nMLO-Y4 cells were incubated in serum free medium for 3 hours followed by treatment of indicated concentrations of irisin for indicated time (FIG. 6A), or followed by treatment of 0 or 10 nM irisin in the presence of indicated integrin inhibitors or their control peptide for 16 hours (FIG. 6B). Sclerostin mRNA level was analyzed by qPCR.\nCertain materials and methods were used to generate the results described herein. […] Cells were stained with Hoechst 33342 (ThermoFisher Scientific, catalog number H3570) and Eth-D1 (ThermoFisher Scientific, catalog number E1169) and analyzed to determine the percentage of cell death using ImageJ. […] Co-precipitated irisin was analyzed by immunoblot analysis against flag tag (Sigma Aldrich, catalog number A8592). […] Sclerostin mRNA level was analyzed by qPCR (FIG. 7A). […]"}, "integrin αV/β1": {"biological_target": "T1, integrin αV/β1 (Homo sapiens, UniProt P05556+P06756)", "T1 construct": "expressed in transfected cells; host or cells: HEK293T", "T1 sequence (P06756 31-889 limits assumed)": "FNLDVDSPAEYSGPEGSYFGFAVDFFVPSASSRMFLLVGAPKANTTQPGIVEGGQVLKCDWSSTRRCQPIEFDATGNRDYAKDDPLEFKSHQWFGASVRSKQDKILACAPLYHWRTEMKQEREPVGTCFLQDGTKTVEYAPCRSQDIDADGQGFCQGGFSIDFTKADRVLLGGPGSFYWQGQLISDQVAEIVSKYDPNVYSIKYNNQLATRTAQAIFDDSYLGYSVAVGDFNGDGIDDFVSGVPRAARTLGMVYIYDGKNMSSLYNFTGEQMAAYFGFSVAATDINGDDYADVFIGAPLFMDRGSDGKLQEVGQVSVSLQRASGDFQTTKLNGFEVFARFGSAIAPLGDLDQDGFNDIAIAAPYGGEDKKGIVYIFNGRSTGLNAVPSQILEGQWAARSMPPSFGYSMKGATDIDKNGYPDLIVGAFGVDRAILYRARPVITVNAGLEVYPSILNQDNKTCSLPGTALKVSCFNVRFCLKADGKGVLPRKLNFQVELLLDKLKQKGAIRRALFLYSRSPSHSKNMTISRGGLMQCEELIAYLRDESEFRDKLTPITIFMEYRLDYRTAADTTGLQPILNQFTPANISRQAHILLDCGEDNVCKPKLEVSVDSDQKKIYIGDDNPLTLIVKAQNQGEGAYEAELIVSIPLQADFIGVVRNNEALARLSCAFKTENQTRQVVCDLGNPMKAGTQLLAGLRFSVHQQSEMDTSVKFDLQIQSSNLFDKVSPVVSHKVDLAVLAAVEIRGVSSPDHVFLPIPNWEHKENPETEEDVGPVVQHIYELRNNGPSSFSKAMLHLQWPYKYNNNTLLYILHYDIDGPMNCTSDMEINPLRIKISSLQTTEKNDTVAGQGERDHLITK", "T1 sequence (P06756 891-1048 partner limits assumed)": "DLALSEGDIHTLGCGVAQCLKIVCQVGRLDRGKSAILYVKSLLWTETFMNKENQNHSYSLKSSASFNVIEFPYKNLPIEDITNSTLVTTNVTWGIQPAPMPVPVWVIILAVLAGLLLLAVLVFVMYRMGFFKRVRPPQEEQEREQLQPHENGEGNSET", "T1 sequence (P05556 21-798)": "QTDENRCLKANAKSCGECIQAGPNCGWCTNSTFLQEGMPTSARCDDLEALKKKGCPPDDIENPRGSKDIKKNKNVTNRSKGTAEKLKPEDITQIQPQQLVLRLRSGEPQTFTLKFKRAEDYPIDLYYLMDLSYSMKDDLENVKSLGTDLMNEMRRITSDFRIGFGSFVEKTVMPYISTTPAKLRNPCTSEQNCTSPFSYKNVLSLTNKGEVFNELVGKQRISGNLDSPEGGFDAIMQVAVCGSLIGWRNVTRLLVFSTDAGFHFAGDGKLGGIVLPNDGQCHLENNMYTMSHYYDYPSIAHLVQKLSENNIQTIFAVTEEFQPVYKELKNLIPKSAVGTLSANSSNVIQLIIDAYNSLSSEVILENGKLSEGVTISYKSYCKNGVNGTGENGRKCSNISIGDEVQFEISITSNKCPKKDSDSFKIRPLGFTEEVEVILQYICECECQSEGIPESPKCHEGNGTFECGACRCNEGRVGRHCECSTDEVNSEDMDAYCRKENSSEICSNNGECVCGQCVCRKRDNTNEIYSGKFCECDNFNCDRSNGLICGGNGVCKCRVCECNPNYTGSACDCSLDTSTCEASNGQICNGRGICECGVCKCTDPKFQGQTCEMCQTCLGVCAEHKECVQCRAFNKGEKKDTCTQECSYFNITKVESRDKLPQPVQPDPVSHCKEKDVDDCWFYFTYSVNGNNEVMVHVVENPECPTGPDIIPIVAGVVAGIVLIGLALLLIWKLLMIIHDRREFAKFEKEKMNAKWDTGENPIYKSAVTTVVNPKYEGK", "assay": "FAK phosphorylation in HEK293T cells with forced expression of integrin αV/β1", "format": "cell-based", "experimental": "100 nM irisin was incubated with 5 nM indicated his-tag integrins followed by immunoprecipitation using Ni-NTA agaroses. Precipitated integrins and co-precipitated irisin were analyzed by immunoblot analysis. […] HEK293T cells were seeded and incubated until 50% cell density. The cells were transfected with 0.1 μg plasmids of indicated integrins. After 48 hours, the cells were re-split to indicated dose of vitronectin-coated plates. Cells were incubated with culture medium for 3 hours. Cells were lysed to detect the indicated protein level using immunoblot analysis. FIG. 15C and FIG. 15D show the immunoblot data. Cells were treated and analyzed as FIG. 14B except using plasmids encoding integrin α5/β1 or integrin α11/β1 (FIG. 15C) integrin αV/β1(FIG. 15D).\nHEK293T cells were set up for experiments at 1×10^5 cells per well in 6 well plate. On day 2, cells were transiently transfected with the indicated plasmids with FuGENE® 6 reagent (Roche Applied Science) according to the manufacturer's protocol. […]\nCells were harvested in RIPA buffer containing protease-inhibitor cocktail and phosphataseinhibitor cocktail. […] Protein levels were analyzed via western blot using indicated antibody. […] Protein levels were analyzed using western blot against indicated antibody."}},
  "note": "Entries after “also recorded” stand apart in the source; their conditions may differ.",
  "data": [
    {"molecule": "irisin: secreted cleaved form of FNDC5; recombinant human/mouse irisin with C-terminal his tag produced in HEK293 cells (protein, left off: small tags and cut ends, secreted cleaved form of FNDC5; recombinant human/mouse irisin with C-terminal his tag produced in HEK293 cells) DSPSAPVNVTVRHLKANSAVVSWDVLEDEVVIGFAISQQKKDVRMLRFIQEVNTTTRSCALWDLEEDTEYIVHVQAISIQGQSPASEPVLFKTPREAEKMASKNKDEVTMKE", "values": [
      {"measurement": "sclerostin mRNA level", "setting": "[1]", "result": "increased; also recorded: raised the mRNA level of sclerostin in the osteocyte cultures in a dose-dependent manner"},
      {"measurement": "phosphorylation of FAK upon irisin treatment", "setting": "integrin αV/β1", "result": "increased FAK phosphorylation"}
    ]}
  ]
}
